From patent US20070292909A1 (RIKEN, published 2007)

Columns and labels:
[1] = molecular target: the molecule itself; assay: ultracentrifugal analysis of self-association: 28 kDa measured, 26 kDa predicted
Experimental: An mKO protein solution with the composition consisting of 150 mM KCl and 50 mM HEPES-KOH (pH 7.4) was prepared. The molecular weight of mKO was determined by ultracentrifugal analysis. The above solution was centrifuged with an ultracentrifuge XL-1 (Beckman Coulter) at 25,000 rpm for 22 hours, so as to measure absorption at 540 nm around the maximum absorption (548 nm) of mKO. From the measurement results, the molecular weight of mKO was calculated to be 28 kDa (FIG. 3). This value was almost the same as 26 kDa predicted from the amino acid sequence, and thus it was confirmed that mKO exists in the form of a monomer.

[2] = molecular target: the molecule itself; assay: ultracentrifugal molecular weight measurement of self-association

Row | Protein | binding result [1] | binding result [2]
1 | monomerized Kusabira-Orange (mKO) (other, also called KO mutant) MVSVIKPEMKMRYYMDGSVNGHEFTIEGEGTGRPYEGHQEMTLRVTMAKGGPMPFAFDLVSHVFCYGHRPFTKYPEEIPDYFKQAFPEGLSWERSLEFEDGGSASVSAHISLRGNTFYHKSKFTGVNFPADGPIMQNQSVDWEPSTEKITASDGVLKGDVTMYLKLEGGGNHKCQFKTTYKAAKKILKMPGSHYISHRLVRKTEGNITELVEDAVAHS | no binding | 
2 | cmkeima 620 (other) MRGSHHHHHHGMASMTGGQQMGRDLYDDDDKDPMVSVIAKQMTYKVYMSGTVNGHYFEVEGDGKGKPYEGEQTVKLTVTKGGPLPFAWDILSPQFQYGSIPFTKYPEDIPDYFKQSFPEGYTWERSMNFEDGAVCTVSNDSSIQGNCFIYNVKISGENFPPNGPVMQKKTQGWEPSTERLFARDGMLIGNDYMALKLEGGGHYLCEFKSTYKAKKPVRMPGRHEIDRKLDVTSHNRDYTSVEQCEIAIARHSLLG |  | no binding
